The values below come from PMC6469932 (Biochemistry, 2018).

Substrate in series [1]: CC(=O)C(=O)O
In words: purified protein. It is filed as biochemical, Sinorhizobium meliloti. The following applies: 0.4 mM NADPH, 150 mM NaCl, 150 mM Tris-HCl pH 7.5, 25 °C.

Substrate in series [2]: O=C(O)C(=O)Cc1ccccc1
In words: purified protein. It is filed as biochemical, Sinorhizobium meliloti. The following applies: 0.4 mM NADPH, 150 mM NaCl, 150 mM Tris-HCl pH 7.5, 25 °C.

Substrate in series [3]: O=C(O)C(=O)CO
In words: purified protein. It is filed as biochemical, Sinorhizobium meliloti. As to conditions: 0.4 mM NADPH, 150 mM NaCl, 150 mM Tris-HCl pH 7.5, 25 °C.

The series “crystal structure” deals with the molecule itself. In words: crystal structure.
Substrate in series [4]: O=C(O)C(=O)[C@@H](O)[C@H](O)[C@H](O)CO
Description: purified protein. It is filed as biochemical, Sinorhizobium meliloti. As to conditions: 0.4 mM NADPH, 150 mM NaCl, 150 mM Tris-HCl pH 7.5, 25 °C.

B1: SmGhrA, glyoxylate/hydroxypyruvate reductase of subfamily GHRA from Sinorhizobium meliloti 1021 (enzyme, UniProt Q92T34 1-319, looked up)
chain: MPAKSPVIVDLKFIPEEVEAALAGAFPGREVIDLADPAHQERDLSGIDYAVVWKSAPDLFSRAPDLKVVFSGGAGVDHVLTLPGLPDVPLVRFVDRTLTTRMSEWVMMQCLLHLRQHRAYEALAKKHEWRDLSQPEAADVTVGIMGMGVLGQDAARKLAAMGFKVIGWSRSKRVIEGVETYDAAGLDAFLGRTDFLVGLLPLTPDTRGIFNAALFAKLSRNGPFGAPVFINAGRGGSQVEADILECLDSGVLGGASLDVFEREPLSPESRFWDMPNVYVTPHVAASSDVRALFVHVEHQIARFESGLPLEHVVDKVAGY
The term kcat/Km denotes the turnover number divided by the Michaelis constant. The stoichiometry N is the number of molecules, sites or subunits per partner or assembly. B1: the K0.5 is recorded as 9.69 ± 0.80 mM in “purified protein [1]”, 6.58 ± 0.73 mM in “purified protein [2]” and 9.35 ± 0.86 mM in “purified protein [3]”. For the same protein, the values for the kcat/Km in the series “purified protein [1]”, in “purified protein [2]” and in the series “purified protein [3]” were 57.3 ± 3.4 M⁻¹ s⁻¹, 267 ± 18 M⁻¹ s⁻¹ and 1200 ± 61 M⁻¹ s⁻¹, respectively. In addition, the “stoichiometry N” value in “crystal structure” was 2.

B2: SmGhrB, glyoxylate/hydroxypyruvate reductase of subfamily GHRB from Sinorhizobium meliloti 1021 (enzyme, UniProt Q92LZ4 1-322, looked up)
chain: MSRPRILVPGKINPRVLERLPEMFETVRIERADAALVTADMRDVSGIAVSGKLPVPLMDAFPSLEIVANFGVGYDGVDVSRAAARGIVVTNTPDVLTEEVADTAIGLLLNTLRLLPQAEQWLRQGRWVREGAFPLSPLSLRGRTVGLFGLGRIGLAIARRLEAFGVSIAYHTRTPREGLGFTYHPTLVGMAEAVDTLIVIVPGTASTLKAVNADVLSALGPKGVLINVGRGSTVDEAALVTALQNGTIAGAGLDVFENEPNVPEALLSFPNVSLLPHVASASVVTRNAMSDLVVDNLKAWFSTGEALTPVAETPFRRRAIQN
Regarding B2, the K0.5 in the series “purified protein [4]” turned out to be 11.0 ± 2.0 mM; in the series “purified protein [2]”, 5.59 ± 0.92 mM. Besides, the kcat/Km in the series “purified protein [4]” worked out at 935 ± 84 M⁻¹ s⁻¹; in the series “purified protein [2]”, 372 ± 38 M⁻¹ s⁻¹. Further, in “crystal structure”, the “stoichiometry N” value was 2.
